Data on three molecules can be found in patent US10344077.

Positions count from the first letter of the chain named.

T1: Centromere B (UniProt P07199)
T1 sequence (looked up): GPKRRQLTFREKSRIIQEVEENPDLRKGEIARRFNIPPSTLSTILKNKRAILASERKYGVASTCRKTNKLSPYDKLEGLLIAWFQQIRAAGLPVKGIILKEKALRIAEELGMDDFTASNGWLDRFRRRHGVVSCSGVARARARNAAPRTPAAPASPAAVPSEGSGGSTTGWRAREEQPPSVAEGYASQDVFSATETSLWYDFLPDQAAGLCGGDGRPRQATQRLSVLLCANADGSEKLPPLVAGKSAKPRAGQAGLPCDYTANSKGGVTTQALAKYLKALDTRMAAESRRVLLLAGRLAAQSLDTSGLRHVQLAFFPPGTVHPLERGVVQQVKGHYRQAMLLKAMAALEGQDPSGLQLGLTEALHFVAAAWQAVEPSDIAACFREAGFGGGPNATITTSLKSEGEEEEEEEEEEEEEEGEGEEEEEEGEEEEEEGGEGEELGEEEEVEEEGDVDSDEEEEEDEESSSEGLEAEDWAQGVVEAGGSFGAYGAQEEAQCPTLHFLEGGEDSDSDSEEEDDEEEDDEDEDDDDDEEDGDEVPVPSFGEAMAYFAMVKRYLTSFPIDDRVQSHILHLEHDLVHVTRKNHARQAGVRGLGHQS

T2: Jo-1 (UniProt P12081)
T2 sequence (looked up): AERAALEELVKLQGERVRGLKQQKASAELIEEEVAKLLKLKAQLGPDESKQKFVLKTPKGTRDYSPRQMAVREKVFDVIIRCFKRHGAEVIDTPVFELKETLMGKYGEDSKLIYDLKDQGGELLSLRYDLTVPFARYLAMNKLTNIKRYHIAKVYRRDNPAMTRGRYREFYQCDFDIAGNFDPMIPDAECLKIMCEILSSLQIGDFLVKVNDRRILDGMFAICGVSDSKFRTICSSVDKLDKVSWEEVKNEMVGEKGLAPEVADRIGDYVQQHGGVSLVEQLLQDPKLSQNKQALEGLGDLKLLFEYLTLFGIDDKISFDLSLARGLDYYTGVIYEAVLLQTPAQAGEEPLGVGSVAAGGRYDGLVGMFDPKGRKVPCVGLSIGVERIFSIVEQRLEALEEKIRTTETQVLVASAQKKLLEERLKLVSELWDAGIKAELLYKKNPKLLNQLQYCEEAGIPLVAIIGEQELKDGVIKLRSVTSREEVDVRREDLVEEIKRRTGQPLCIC

B1: CH241 (antibody, from a related filing, V domains shown)
VH: QVQLVQSGAAVKKPGASVRVSCKASGYTFTSSHIHWVRQAPGQGPEWMGMIDPSVGRPTTAGKFQGRVTMTRDRYTSTAYMDLSSLRSEDTAVYYCARSVETTGSLLYFDYWGQGTLITVSS
VL: EIVLTQSPATLSVSPGERATLSCRASQSVRSNIAWYQQKPGQAPRLLIHGASTRATGIPGRFSGSGSGPEFTLAISSVQSEDFAVYYCQQYNDWWTFGQGTKVEIK
B2: CH235_4A (antibody, from a related filing, V domains shown)
VH: QVQLVQSGAEVKKPGASVTVSCQASGYTFTNYYVHWVRQAPGQGLQLMGWIDPSWGRTNYAQNFQGRITMTRDTSTSTVYMEMRSLRSEDTAVYYCARNVATEGSLLHYDYWGQGTLVTVSA
VL: EIVLTQSPATLSVSPGERATLSCRASQSVRSNLAWYQQRPGQAPRLLIYGTSTRATGVPARFSGRGSGTEFTLAISSMQSEDFAVYLCLQYNNWWTFGQGTKVEIK
B3: CH240_4A/293i (antibody, from a related filing, V domains shown)
VH: QVQLVQSGTEVRKPGASVTISCKASGYTFNNFYVHWVRQAPGQGLECMGWIDPSVGRISYGQKFQGRVTMTRDRSTSTVYMGLSSLRSEDTAMYYCVRDVGTEGSLLHFDHWGQGTLVIVSA
VL: B1 VL with S26T, I33L, P40R, H49Y, G50S, G60A, P69T, A74T, Q89L, D93N

The first test concerns the target T1, Centromere B. Nature of the test: AtheNA, Ab 25 ug/ml.
As to B1, the Athena reading (relative luminescence units) is 14.
The same measure, in the same setting: the value for B2 was 6; that for B3 was 24.

Another test addresses Histones. Briefly: AtheNA, Ab 25 ug/ml.
As to B1, the Athena reading (relative luminescence units) was found to be 20.
B2 registered an Athena reading (relative luminescence units) of 7.
On the same count and under the same terms, the value for B3 was 27.

The next test concerns the target T2, Jo-1. Briefly: AtheNA, Ab 25 ug/ml.
The molecule B1 yielded an Athena reading (relative luminescence units) of 5.
Same read-out and setting: the value for B2 was 4; that for B3 was 11.

Another test has as its target RNP (ribonucleoprotein). Briefly: AtheNA, Ab 25 ug/ml.
The molecule B1 registered an Athena reading (relative luminescence units) of 6.
B2 registered an Athena reading (relative luminescence units) of 5.
The molecule B3 had an Athena reading (relative luminescence units) of 11.

For the next test, the target named is SSA. Nature of the test: AtheNA, Ab 25 ug/ml.
B1: the Athena reading (relative luminescence units) is 15.
Consider B2, for which the Athena reading (relative luminescence units) is 13.
On the same count and under the same terms, to B3 belongs 16.

In the next test the target is Scl-70 (UniProt P11387). Nature of the test: AtheNA, Ab 25 ug/ml.
Chain of Scl-70 (P11387 2-765 limits assumed): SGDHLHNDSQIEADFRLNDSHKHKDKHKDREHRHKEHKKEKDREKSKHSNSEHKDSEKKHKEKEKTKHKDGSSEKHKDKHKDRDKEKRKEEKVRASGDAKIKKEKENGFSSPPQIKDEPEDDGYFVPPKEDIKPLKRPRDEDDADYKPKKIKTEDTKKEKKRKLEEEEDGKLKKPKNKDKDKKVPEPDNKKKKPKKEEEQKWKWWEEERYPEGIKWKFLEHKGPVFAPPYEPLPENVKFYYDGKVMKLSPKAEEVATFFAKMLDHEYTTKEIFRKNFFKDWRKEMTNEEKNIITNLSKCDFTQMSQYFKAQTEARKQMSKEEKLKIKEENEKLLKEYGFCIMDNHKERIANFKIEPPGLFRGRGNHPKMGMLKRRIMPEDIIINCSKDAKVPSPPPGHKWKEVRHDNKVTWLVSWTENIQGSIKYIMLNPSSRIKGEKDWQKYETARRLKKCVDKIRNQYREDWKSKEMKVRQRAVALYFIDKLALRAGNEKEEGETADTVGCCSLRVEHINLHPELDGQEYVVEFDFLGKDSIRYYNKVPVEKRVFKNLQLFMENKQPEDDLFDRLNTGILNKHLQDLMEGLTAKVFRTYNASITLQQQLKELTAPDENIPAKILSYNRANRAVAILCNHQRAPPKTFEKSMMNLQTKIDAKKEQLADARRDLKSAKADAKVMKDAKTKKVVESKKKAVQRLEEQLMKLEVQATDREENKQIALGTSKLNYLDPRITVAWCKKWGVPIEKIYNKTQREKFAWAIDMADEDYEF
B1 came in with an Athena reading (relative luminescence units) of 4.
Same read-out and setting: the value for B2 was 4; that for B3 was 6.

The next test addresses Sm (Smith antigen). Nature of the test: AtheNA, Ab 25 ug/ml.
In turn, B1 had an Athena reading (relative luminescence units) of 11.
Same read-out and setting: the value for B2 was 7; that for B3 was 22.

The target in the next test is T1, Centromere B. Briefly: AtheNA, Ab 12.5 ug/ml.
With B1, the Athena reading (relative luminescence units) was 8.
Still for that read-out and setting: the value for B2 was 5; that for B3 was 15.

The target of the next test is Histones. Briefly: AtheNA, Ab 12.5 ug/ml.
In turn, B1 registered an Athena reading (relative luminescence units) of 13.
On the same count and under the same terms, to B2 belongs 5; to B3, 18.

The target in the next test is T2, Jo-1. Briefly: AtheNA, Ab 12.5 ug/ml.
B1 had an Athena reading (relative luminescence units) of 6.
Same read-out and setting: the value for B2 was 3.
Still for that read-out and setting: to B3 belongs 7.

A further test deals with RNP (ribonucleoprotein). Briefly: AtheNA, Ab 12.5 ug/ml.
B1 yielded an Athena reading (relative luminescence units) of 5.
On the same count and under the same terms, the value for B2 was 6; that for B3 was 8.

The next test addresses SSA. Briefly: AtheNA, Ab 12.5 ug/ml.
Turning to B1, the Athena reading (relative luminescence units) stood at 14.
Same read-out and setting: to B2 belongs 13; to B3, 14.

For a further test, the target named is Scl-70 (UniProt P11387). Nature of the test: AtheNA, Ab 12.5 ug/ml.
In turn, B1 displayed an Athena reading (relative luminescence units) of 3.
Same read-out and setting: the value for B2 was 2; that for B3 was 4.

The target of a further test is Sm (Smith antigen). Briefly: AtheNA, Ab 12.5 ug/ml.
Take B1: the Athena reading (relative luminescence units) came to 7.
Same read-out and setting: the value for B2 was 8; that for B3 was 13.

In the next test the target is T1, Centromere B. Briefly: AtheNA, Ab 6.25 ug/ml.
In turn, B1 registered an Athena reading (relative luminescence units) of 6.
The same measure, in the same setting: the value for B2 was 3; that for B3 was 8.

The target of a further test is Histones. Briefly: AtheNA, Ab 6.25 ug/ml.
Consider B1, for which the Athena reading (relative luminescence units) came to 9.
Still for that read-out and setting: the value for B2 was 5; that for B3 was 9.

For another test, the target named is T2, Jo-1. Briefly: AtheNA, Ab 6.25 ug/ml.
As to B1, the Athena reading (relative luminescence units) stood at 2.
The same measure, in the same setting: the value for B2 was 2; that for B3 was 5.

A further test concerns the target RNP (ribonucleoprotein). Briefly: AtheNA, Ab 6.25 ug/ml.
B1: the Athena reading (relative luminescence units) came to 3.
Same read-out and setting: to B2 belongs 3.
Same read-out and setting: the value for B3 was 6.

In another test the target is SSA. Briefly: AtheNA, Ab 6.25 ug/ml.
As to B1, the Athena reading (relative luminescence units) stood at 15.
On the same count and under the same terms, to B2 belongs 12; to B3, 12.

The target of a further test is Scl-70 (UniProt P11387). Briefly: AtheNA, Ab 6.25 ug/ml.
As to B1, the Athena reading (relative luminescence units) turned out to be 1.
Still for that read-out and setting: the value for B2 was 2; that for B3 was 3.

In another test the target is Sm (Smith antigen). Briefly: AtheNA, Ab 6.25 ug/ml.
Molecule B1 gave an Athena reading (relative luminescence units) of 4.
The molecule B2 came in with an Athena reading (relative luminescence units) of 5.
Still for that read-out and setting: the value for B3 was 9.

Substrate in another test: T3, SSB (UniProt P05455)
T3 sequence (looked up): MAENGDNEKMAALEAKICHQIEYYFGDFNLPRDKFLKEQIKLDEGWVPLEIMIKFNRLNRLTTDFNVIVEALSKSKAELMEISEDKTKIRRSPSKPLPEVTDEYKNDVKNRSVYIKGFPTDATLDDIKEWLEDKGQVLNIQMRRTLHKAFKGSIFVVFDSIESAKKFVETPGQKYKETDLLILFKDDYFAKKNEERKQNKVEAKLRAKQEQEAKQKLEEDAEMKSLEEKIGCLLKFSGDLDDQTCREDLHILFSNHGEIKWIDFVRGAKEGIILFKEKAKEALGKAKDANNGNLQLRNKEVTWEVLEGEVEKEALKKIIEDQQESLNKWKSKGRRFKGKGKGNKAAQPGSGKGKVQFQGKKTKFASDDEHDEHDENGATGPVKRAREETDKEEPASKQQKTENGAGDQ
Briefly: AtheNA, Ab 25 ug/ml.
With B1, the Athena reading (relative luminescence units) worked out at 6.
Same read-out and setting: to B2 belongs 5; to B3, 11.

Substrate in a further test: T3, 
Briefly: AtheNA, Ab 12.5 ug/ml.
Consider B1, for which the Athena reading (relative luminescence units) was determined as 8.
In the case of B2, the Athena reading (relative luminescence units) was 5.
Still for that read-out and setting: to B3 belongs 5.

Substrate in a further test: T3, 
Nature of the test: AtheNA, Ab 6.25 ug/ml.
Turning to B1, the Athena reading (relative luminescence units) was 4.
Take B2: the Athena reading (relative luminescence units) stood at 6.
With B3, the Athena reading (relative luminescence units) is 5.
